What all share (assay): SEC; purified enzymes that were not crosslinked, on Superdex 200; native mass estimated from the elution
Assay [1] concerns the target wild-type (S)-carbonyl reductase II (Candida parapsilosis CCTCC M203011).
Assay [2] deals with ADHR (Lactobacillus kefiri DSM 20587).
For assay [3], the target named is SCR3 (Candida parapsilosis CCTCC M203011).
Assay [4] concerns the target SCR1 (Candida parapsilosis CCTCC M203011).

Consider “wild-type (S)-carbonyl reductase II (enzyme)”, for which, in assay [1], the stoichiometry N – broadly, the number of molecules, sites or subunits per partner or assembly – is 4.
For ADHR (enzyme), the stoichiometry N in assay [2] is 4.
As to SCR3 (enzyme), in assay [3], the stoichiometry N is 4.
For SCR1 (enzyme), the stoichiometry N in assay [4] was 4.

The values are drawn from paper PMC5465079.
